In US20120244164A1 (published 2012):
Substitutions are numbered along the chain they refer to. Numbers in names are those of the source.

B1: A00790069 (VHH)
VHH: EVQLVESGGGLVQPGGSLRLSCAASGFILDYYAIGWFRQAPGKEREGVLCIDASDDITYYADSVKGRFTISRDNSKNTVYLQMNSLRPEDTAVYYCATPIGLSSSCLLEYDYDYWGQGTLVTVSS
notes: the entry as printed already holds the 3xFLAG-His6 tag; also called 04E09 (A74S, K83R, G88A, Q108L)
B2: A00790105 tagged with 3xFlag-His6 (VHH)
VHH: B1 VHH with E1D
notes: also called 04E09 (E1D, A74S, K83R, G88A, Q108L)
B3: 04E09 (C22A/C92S) (SEQ ID NO: 25) tagged with 3xFlag-His6 (VHH)
VHH: EVQLVESGGGLVQPGGSLRLSAAASGFILDYYAIGWFRQAPGKEREGVLCIDASDDITYYADSVKGRFTISRDNAKNTVYLQMNSLKPEDTGVYYSATPIGLSSSCLLEYDYDYWGQGTLVTVSSGAADYKDHDGDYKDHDIDYKDDDDKGAAHHHHHH
B4: 04E09 (C50S/C100bG) (SEQ ID NO: 24) tagged with 3xFlag-His6 (VHH)
VHH: B1 VHH with C50S, S75A, R87K, A92G, C106G
B5: 04E09 (L49S) (SEQ ID NO: 23) tagged with 3xFlag-His6 (VHH)
VHH: B1 VHH with L49S, S75A, R87K, A92G
B6: A007900744 (VHH)
VHH: VQLVESGGGLVQPGGSLRLSCAASGFTFDDYAIGWFRQAPGEEREGVSSISSTYGLTYYADSVKGRFTISRSNSKNTVYLQMNSLKPEDTAVYYCAATPIERLGLDAYEYDYWGQGTLVTVSS
notes: 33H10 variant; the entry holds the 3xFLAG-His6 tag
B7: A007900184 (33H10-3xFLAG-His6) (VHH)
VHH: EVQLVESGGGLVQAGGSLRLSCAASGFTFDDYAIGWFRQAPGEEREGVSSISSTYGLTYYADSVKGRFTISSSNAKNTVYLQMNNLKPEDTAVYYCAATPIERLGLDAYEYDYWGQGTLVTVSS
notes: the entry holds the tag; also called A007900184 (wt)
B8: A007900752 (VHH)
VHH: B7 VHH with A14P, E43K, S72R, A75S, N85S
notes: as for B6
B9: A007900739 (VHH)
VHH: B7 VHH with A14P, A75S, N85S
notes: as for B6
B10: A007900745 (VHH)
VHH: B7 VHH with A14P, S72R, S73D, A75S, N85S
notes: as for B6
B11: A007900750 (VHH)
VHH: B7 VHH with A14P, E43K, S72R, A75S
notes: as for B6
B12: A007900748 (VHH)
VHH: B7 VHH with A14P, E43K, S73D, A75S
notes: as for B6
B13: A007900749 (VHH)
VHH: B7 VHH with A14P, E43K, S73D, A75S, N85S
notes: as for B6
B14: A007900741 (VHH)
VHH: B7 VHH with A14P, S73D, A75S, N85S
notes: as for B6
B15: A007900740 (VHH)
VHH: B7 VHH with A14P, S73D, A75S
notes: as for B6
B16: A007900738 (VHH)
VHH: B7 VHH with A14P, A75S
notes: as for B6
B17: A007900742 (VHH)
VHH: B7 VHH with A14P, S72R, A75S
notes: as for B6
B18: A007900747 (VHH)
VHH: B7 VHH with A14P, E43K, A75S, N85S
notes: as for B6
B19: A007900746 (VHH)
VHH: B7 VHH with A14P, E43K, A75S
notes: as for B6
B20: A007900751 (VHH)
VHH: B7 VHH with A14P, E43K, S72R, S73D, A75S
notes: as for B6
B21: A007900743 (VHH)
VHH: B7 VHH with A14P, S72R, S73D, A75S
notes: as for B6
B22: A007900753 (VHH)
VHH: B7 VHH with A14P, E43K, S72R, S73D, A75S, N85S
notes: as for B6
B23: A007901247 (VHH)
VHH: B7 VHH with A14P, E43K, S73D, A75S, N85S, K87R, E102G, R103L, L104I
notes: 33H10 variant, 3xFLAG-His6 tagged; the entry holds the tag
B24: A007901251 (VHH)
VHH: B7 VHH with A14P, E43K, E46L, S73D, A75S, N85S, K87R, E102G, R103L, L104I
notes: as for B23
B25: A007901248 (VHH)
VHH: B7 VHH with A14P, T28A, E43K, S73D, A75S, N85S, K87R, E102G, R103L, L104I
notes: as for B23
B26: A007901252 (VHH)
VHH: EVQLVESGGGLVQPGGSLRLSCAASGFAFDDYAIGWFRQAPGKERLGVSSISSTYGLTYYADSVKGRFTISSDNSKNTVYLQMNSLRPEDTAVYYCAATPIGLIGLDAYEYDYWGQGTLVTVSS
notes: as for B23
B27: A007901249 (VHH)
VHH: B26 VHH with A28T, K43E
notes: 33H10 variant, 3xFLAG-His6 tagged; the entry holds the tag; also called monovalent form of A007901259
B28: A007901250 (VHH)
VHH: B26 VHH with K43E
notes: 33H10 variant, 3xFLAG-His6 tagged; the entry holds the tag; also called monovalent form of A007901260
B29: A007901245 (VHH)
VHH: B26 VHH with A28T, K43E, L46E
notes: 33H10 variant, 3xFLAG-His6 tagged; the entry holds the tag; also called monovalent form of A007901255
B30: A007901246 (VHH)
VHH: B26 VHH with K43E, L46E
notes: 33H10 variant, 3xFLAG-His6 tagged; the entry holds the tag; also called monovalent form of A007901256
B31: A007901253 (VHH)
VHH: B26 VHH with A28T, K43E, L46E, S63P
notes: as for B23
B32: A00790067 (VHH)
VHH: VQLVESGGGLVQPGGSLRLSCAASGFILDYYAIGWFRQAPGKEREGVLCIDASDDITYYADSVKGRFTISRDNAKNTVYLQMNSLKPEDTGVYYCATPIGLSSSCLLEYDYDYWGQGTLVTVSS
notes: the entry as printed already holds the 3xFLAG-His6 tag; also called 04E09 (Q108L)
B33: A00790068 (VHH)
VHH: B1 VHH with A92G
notes: the entry as printed already holds the 3xFLAG-His6 tag; also called 04E09 (A74S, K83R, Q108L)

The binders below were run against T1, recombinant human c-Met/Fc chimera (R&D systems) (human) (assay: HGF-competition Alphascreen, EXP 2).
T1 construct: R&D Systems 358-MT/CF, expressed in NS0 cells; also called hc-Met/Fc; hu c-Met/Fc
T1 sequence (chain, as listed by the source mutant limits assumed): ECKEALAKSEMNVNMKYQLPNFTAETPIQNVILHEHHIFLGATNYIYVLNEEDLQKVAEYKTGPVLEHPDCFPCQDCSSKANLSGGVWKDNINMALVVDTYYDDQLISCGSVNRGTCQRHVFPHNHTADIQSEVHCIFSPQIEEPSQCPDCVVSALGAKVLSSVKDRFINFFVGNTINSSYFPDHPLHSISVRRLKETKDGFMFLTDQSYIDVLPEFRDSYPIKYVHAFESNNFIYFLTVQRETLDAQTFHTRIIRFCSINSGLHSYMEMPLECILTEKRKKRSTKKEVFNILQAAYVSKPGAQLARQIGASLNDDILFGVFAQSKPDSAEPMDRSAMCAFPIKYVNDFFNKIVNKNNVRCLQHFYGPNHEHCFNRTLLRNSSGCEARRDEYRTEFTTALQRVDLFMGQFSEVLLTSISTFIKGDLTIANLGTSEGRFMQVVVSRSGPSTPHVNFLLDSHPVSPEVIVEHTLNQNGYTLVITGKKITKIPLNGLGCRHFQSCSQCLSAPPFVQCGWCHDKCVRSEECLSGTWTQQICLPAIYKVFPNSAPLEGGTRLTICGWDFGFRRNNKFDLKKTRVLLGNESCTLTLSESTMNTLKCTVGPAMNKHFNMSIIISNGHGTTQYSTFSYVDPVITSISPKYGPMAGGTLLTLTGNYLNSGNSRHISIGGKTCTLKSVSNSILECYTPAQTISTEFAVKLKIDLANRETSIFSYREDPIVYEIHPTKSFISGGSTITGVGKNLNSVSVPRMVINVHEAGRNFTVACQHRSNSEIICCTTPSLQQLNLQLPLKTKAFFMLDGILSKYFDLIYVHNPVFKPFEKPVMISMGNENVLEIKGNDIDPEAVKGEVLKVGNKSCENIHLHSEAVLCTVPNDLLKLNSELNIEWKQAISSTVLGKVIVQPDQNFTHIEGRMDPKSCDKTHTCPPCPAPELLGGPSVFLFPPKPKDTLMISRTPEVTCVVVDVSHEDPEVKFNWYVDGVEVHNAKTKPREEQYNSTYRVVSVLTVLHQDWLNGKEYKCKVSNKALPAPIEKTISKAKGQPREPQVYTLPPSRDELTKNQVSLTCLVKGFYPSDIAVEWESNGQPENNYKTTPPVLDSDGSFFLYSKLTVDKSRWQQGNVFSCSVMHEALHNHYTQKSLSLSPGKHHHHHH

IC50	Binder
0.071 nM	B1
0.061 nM	B2

The binders below were run against T1, recombinant human c-Met/Fc chimera (R&D …) (assay: SPR (ProteOn), c-Met/Fc captured on anti-human IgG(Fc)).
Method: (§1) Anti-human IgG(Fc) antibody (GE Healthcare) was immobilized on a ProteOn GLC Sensorchip (BioRad) via amine coupling on two ligand lanes at densities of approximately 5300 RU and 2700 RU. […] Regeneration of the surface was performed by an 80 seconds injection of 3M magnesium chloride at 25 μl/min (component of kit BR-1008-39, GE Healthcare).
The experiment was performed as described in Example 5.

Kd	koff	kon	Binder
0.0234 nM	7.9e-05 s⁻¹	3.37e+06 M⁻¹ s⁻¹	B3
4.09 nM	0.000788 s⁻¹	193000 M⁻¹ s⁻¹	B4

Each binder was assayed against T2, Human c-Met (human, UniProt P08581 25-1390) (assay: cell-based or functional assay).
T2 sequence (P08581 25-1390 limits assumed): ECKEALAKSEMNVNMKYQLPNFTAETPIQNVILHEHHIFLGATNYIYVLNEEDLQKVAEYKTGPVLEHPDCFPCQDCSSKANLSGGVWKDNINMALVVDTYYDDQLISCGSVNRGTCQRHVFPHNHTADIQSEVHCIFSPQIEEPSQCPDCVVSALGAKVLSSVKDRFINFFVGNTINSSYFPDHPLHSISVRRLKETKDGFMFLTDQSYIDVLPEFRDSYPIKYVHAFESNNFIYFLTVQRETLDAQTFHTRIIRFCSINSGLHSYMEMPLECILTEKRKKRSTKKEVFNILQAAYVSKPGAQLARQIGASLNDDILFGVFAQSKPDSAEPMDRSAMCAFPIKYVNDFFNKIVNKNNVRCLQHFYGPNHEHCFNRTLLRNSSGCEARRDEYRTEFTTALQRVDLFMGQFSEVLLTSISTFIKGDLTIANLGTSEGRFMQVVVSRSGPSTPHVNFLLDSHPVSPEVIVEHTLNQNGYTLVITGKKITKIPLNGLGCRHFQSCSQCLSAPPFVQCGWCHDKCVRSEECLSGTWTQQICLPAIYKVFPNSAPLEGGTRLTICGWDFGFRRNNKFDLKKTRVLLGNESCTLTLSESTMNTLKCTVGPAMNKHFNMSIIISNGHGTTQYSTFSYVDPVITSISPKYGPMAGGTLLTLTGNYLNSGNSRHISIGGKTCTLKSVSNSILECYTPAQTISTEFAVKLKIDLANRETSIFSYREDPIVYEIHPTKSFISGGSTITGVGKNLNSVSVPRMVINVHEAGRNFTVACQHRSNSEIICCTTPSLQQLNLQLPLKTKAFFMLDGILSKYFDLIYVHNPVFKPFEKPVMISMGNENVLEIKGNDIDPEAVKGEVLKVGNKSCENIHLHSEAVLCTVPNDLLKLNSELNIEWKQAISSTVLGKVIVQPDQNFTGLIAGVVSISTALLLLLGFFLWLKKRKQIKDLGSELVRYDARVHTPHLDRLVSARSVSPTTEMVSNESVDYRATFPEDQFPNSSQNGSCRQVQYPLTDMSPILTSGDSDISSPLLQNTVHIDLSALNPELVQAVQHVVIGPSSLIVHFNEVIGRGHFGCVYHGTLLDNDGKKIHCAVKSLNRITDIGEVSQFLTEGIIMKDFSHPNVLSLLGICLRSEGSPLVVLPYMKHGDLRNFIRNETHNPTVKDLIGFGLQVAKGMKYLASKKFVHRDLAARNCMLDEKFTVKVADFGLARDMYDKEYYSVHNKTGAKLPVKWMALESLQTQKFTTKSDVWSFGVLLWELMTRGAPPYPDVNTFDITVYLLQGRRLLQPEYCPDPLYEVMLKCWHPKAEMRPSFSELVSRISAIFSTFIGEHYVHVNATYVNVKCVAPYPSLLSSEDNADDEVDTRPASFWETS

IC50, HGF-dependent c-Met phosphorylation in A549 tumor cells	Binder
3.1 nM	B5
3.8 nM	B3

What follows are binders tested against T1, recombinant human c-Met/Fc chimera (R&D …) (assay: HGF-competition Alphascreen).

IC50	Binder
11 nM	B6
0.78 nM	B7
31 nM	B8
0.58 nM	B9
18 nM	B10
42 nM	B11
3.5 nM	B12
3.4 nM	B13
0.85 nM	B14
1.1 nM	B15
0.69 nM	B16
8.3 nM	B17
2.5 nM	B18
2.5 nM	B19
100 nM	B20
26 nM	B21
100 nM	B22

The binders below were run against T3, recombinant human CTLA4/Fc chimera (R&D Systems) (human, UniProt P16410 37-162, limits assumed) (assay: SPR (ProteOn), CTLA4/Fc captured on anti-human IgG(Fc)).
T3 construct: control protein; not shown: Fc part of a bought protein, not described
Method: as §1

T3 sequence (P16410 37-162 limits assumed, change not shown): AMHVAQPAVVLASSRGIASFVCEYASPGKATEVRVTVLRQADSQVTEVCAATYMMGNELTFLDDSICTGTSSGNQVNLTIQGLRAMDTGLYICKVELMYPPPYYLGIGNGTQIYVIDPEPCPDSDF

binding result	Binder
no binding	B3
no binding	B4

Target: T1, recombinant human c-Met/Fc chimera (R&D …)
Experiment: HGF-competition Alphascreen
Remark: another data set of the same source

IC50	Binder
0.61 nM	B7
0.27 nM	B23
0.068 nM	B24
0.17 nM	B25
0.12 nM	B26
0.08 nM	B27
0.081 nM	B28
0.092 nM	B29
0.089 nM	B30
0.071 nM	B31

These binders were tested against T1, recombinant human c-Met/Fc chimera (R&D …) (assay: modified HGF-competition Alphascreen: 0.4 nM biotinylated HGF, 0.016 nM cMet/Fc).

IC50	Binder
0.043 nM	B27
0.035 nM	B28
0.091 nM	B29
0.048 nM	B30

What follows are binders tested against T4, cynomolgus c-Met (cynomolgus monkey, UniProt A0M8R7 25-1381 (Papio anubis entry)) (assay: competition FACS: 0.5 nM biotinylated HGF on BAF3 cells with cynomolgus c-Met).
T4 construct: also called cynomolgus monkey c-Met; cyno c-Met
Method: Cells were analyzed on a FACSarray flow cytometer as described in earlier examples.

T4 sequence (A0M8R7 25-1381 S170N/I621T limits assumed): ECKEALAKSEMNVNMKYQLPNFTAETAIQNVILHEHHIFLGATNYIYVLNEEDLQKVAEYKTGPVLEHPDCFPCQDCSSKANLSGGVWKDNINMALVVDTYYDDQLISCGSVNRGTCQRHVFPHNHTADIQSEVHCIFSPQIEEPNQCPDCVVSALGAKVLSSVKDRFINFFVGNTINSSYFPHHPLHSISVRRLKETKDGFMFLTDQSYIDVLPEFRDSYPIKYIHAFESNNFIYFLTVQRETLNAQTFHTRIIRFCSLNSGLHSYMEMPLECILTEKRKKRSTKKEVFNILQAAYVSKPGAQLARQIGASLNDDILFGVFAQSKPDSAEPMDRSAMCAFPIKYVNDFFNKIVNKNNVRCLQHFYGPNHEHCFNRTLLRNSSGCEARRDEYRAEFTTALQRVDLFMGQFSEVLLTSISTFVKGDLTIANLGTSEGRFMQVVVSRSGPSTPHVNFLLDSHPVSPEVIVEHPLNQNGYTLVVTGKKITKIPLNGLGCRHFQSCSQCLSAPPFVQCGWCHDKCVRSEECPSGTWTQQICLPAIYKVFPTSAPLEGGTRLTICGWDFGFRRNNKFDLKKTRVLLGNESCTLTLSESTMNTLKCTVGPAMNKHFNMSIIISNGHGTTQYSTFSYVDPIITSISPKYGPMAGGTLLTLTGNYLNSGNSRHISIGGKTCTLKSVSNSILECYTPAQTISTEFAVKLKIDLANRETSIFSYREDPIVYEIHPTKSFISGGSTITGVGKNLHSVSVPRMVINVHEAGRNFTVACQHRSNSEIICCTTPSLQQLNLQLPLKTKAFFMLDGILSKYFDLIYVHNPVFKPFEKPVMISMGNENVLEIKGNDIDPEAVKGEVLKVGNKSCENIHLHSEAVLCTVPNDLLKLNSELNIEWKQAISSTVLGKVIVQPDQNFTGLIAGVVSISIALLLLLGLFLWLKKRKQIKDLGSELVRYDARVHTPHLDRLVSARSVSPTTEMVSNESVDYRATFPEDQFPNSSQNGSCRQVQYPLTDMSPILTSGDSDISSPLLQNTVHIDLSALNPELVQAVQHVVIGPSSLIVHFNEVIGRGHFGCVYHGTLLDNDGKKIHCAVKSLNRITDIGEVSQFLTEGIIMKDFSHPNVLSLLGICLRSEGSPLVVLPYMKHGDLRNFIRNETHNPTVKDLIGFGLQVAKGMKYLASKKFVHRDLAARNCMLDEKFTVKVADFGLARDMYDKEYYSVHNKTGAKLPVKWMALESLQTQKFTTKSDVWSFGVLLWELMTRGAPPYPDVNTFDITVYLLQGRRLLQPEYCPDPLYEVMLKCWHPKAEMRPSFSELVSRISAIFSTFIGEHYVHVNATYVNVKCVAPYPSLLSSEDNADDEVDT

% inhibition	IC50	factor of decrease in potency against parental SEQ ID NO: 7	Binder
100%	0.61 nM	–	B5
101%	0.49 nM	–	B3
100%	20 nM	~35 fold	B4

These binders were tested against T1, recombinant human c-Met/Fc chimera (R&D …) (assay: HGF-competition Alphascreen, EXP 1).

IC50	Binder
0.069 nM	B32
0.104 nM	B33
0.107 nM	B1

Target: T2, Human c-Met
Experiment: cell-based or functional assay
Remark: another data set of the same source

IC50, cell-based cMet phosphorylation assay	IC50, cell-based proliferation assay, plate 2	IC50, cell-based proliferation assay, plate 1	Binder
79 nM	–	–	B7
12.8 nM	–	–	B23
4.98 nM	–	–	B24
11.5 nM	–	–	B25
4.16 nM	–	–	B26
2.81 nM	1.93 nM	–	B27
2.34 nM	1.32 nM	2.29 nM	B28
5.41 nM	–	3.69 nM	B29
3.44 nM	–	1.88 nM	B30
4.84 nM	–	–	B31

The binders below were run against T1, recombinant human c-Met/Fc chimera (R&D …) (assay: HGF-competition Alphascreen, EXP 1, second value).

IC50	Binder
0.069 nM	B32
0.072 nM	B33
0.046 nM	B1

Target: T2, Human c-Met
Experiment: cell-based or functional assay
Remark: another data set of the same source

IC50, c-Met phosphorylation, EXP 1	IC50, c-Met phosphorylation, EXP 2	Binder
2.21 nM	–	B32
1.96 nM	–	B33
2.05 nM	2.45 nM	B1
–	2.33 nM	B2
